Test results as given in patent US20110262525A1, “METHODS OF TREATMENT” (SCHERING CORPORATION, priority 2006, published 2011).
Marks after values point to notes of the source that are not given here.

Columns and labels:
[1] = tested on: OS-33 xenograft (Osteosarcoma); assay: PPTP in vivo xenograft OS-33; settings: OS-33 (Osteosarcoma) xenograft, 0.5 mg per mouse ip twice weekly for four weeks
Source text: The PPTP includes a molecularly characterized in vitro panel of cell lines (n=27) and in vivo panel of xenografts (n=61) representing most of the common types of childhood solid tumors and childhood ALL (acute lymphoblastic leukemia).
(§1) Stage 1 testing involved testing an agent across the entire PPTP panel of childhood cancer xenograft lines at its maximum tolerated dose (MTD) or at a dose selected based on PK/PD (pharmacokinetic/pharmacodynamic) studies using adult preclinical models.
(§2) In vivo solid tumor testing: For each xenograft line, 10 mice bearing subcutaneous (SC) tumors initiated treatment when the tumors were between 0.2-0.5 cm^3 in volume. Two perpendicular tumor diameters were measured at once weekly intervals with digital vernier calipers. Assuming tumors to be spherical, volumes were calculated from the formula (π/6)×d3, where d represented the mean diameter.
The antibody was provided to each testing site in coded vials for blinded testing according the PPTP's standard operating procedures.
(§3) Median Group Response: Each individual mouse in each treatment group was assigned a response score (see Tables above) and a median score for the treatment group was calculated and then each treatment group was assigned an overall response according to the table below.
(§4) Statistical Methods: Event-free survival (EFS) distributions of each treatment group were compared to the EFS distribution of the respective control group using the exact log rank test. P-values were 2-sided & were not adjusted for multiple comparisons given the exploratory nature of this study. P-values<0.05 were considered to be significant.

EW8 xenograft (Ewings) = assay: PPTP in vivo xenograft EW8
Method: (§5) The PPTP includes a molecularly characterized in vitro panel of cell lines (n=27) and in vivo panel of xenografts (n=61) representing most of the common types of childhood solid tumors and childhood ALL (acute lymphoblastic leukemia). LCF/HCA anti-IGF1R antibody was tested against the PPTP in vitro panel at concentrations ranging from 0.01 nM to 100 nM; and was tested against the PPTP in vivo panel at a dose of 0.5 mg per mouse administered twice weekly for four weeks via intraperitoneal injection. Three measures of antitumor activity were used: 1) response criteria modeled after the clinical setting; 2) treated-to-control (T/C) tumor volume at day 21; and 3) a time to event (4-fold increase in tumor volume) measure based on the median EFS of treated and control lines (intermediate activity required EFS (event-free survival) T/C>2, and high activity additionally required a net reduction in median tumor volume at the end of the experiment).
as §1, §2
Drug: LCF/HCA was dissolved in 20mM sodium acetate pH 5 buffer containing 150 mM sodium chloride, and administered intraperitoneally twice weekly for 4 consecutive weeks at a dose of 0.5 mg per animal. […]
(§6) Median Group Response: Each individual mouse in each treatment group was assigned a response score (see Tables above) and a median score for the treatment group was calculated and then each treatment group was assigned an overall response according to the table below. […]

[2] = tested on: A498 human kidney carcinoma tumor cells; assay: A498 renal cell carcinoma xenograft in athymic nude mice; type: in vivo, mouse; settings: 0.1 mg/injection ip two times per week, seven times starting on day 12
Method: Athymic nude mice were inoculated with A498 human kidney carcinoma tumor cells in the right flank, subcutaneously, along with Matrigel (1:1::cells:gel). In these experiments, 5×10^6 cells/mouse in a 1:1 mix with regular matrigel. The LCF/HCA anti-IGF1R antibody was inoculated intraperitoneally (ip) (0.1 mg/injection). Mice were dosed with antibody two times per week, by intraperitoneal injection, seven times starting on day 12. Tumor size was measured with calipers and the data was entered into the LABCAT data experimental collection and analysis program program (Innovative Programming Associates, Inc.; Princeton, N.J.). Mice were grouped with average size of 100 mm^3. Tumor size and body weight were measured twice weekly.

[3] = tested on: ALL-16 xenograft (ALL T-cell); assay: PPTP in vivo leukemia xenograft ALL-16; settings: ALL-16 (ALL T-cell) xenograft; 0.5 mg per mouse ip twice weekly for four weeks
Method: The PPTP includes a molecularly characterized in vitro panel of cell lines (n=27) and in vivo panel of xenografts (n=61) representing most of the common types of childhood solid tumors and childhood ALL (acute lymphoblastic leukemia). LCF/HCA anti-IGF1R antibody was tested against the PPTP in vitro panel at concentrations ranging from 0.01 nM to 100 nM; and was tested against the PPTP in vivo panel at a dose of 0.5 mg per mouse administered twice weekly for four weeks via intraperitoneal injection. […]
In vivo acute lymphoblastic leukemia testing: For each xenograft line, 8 mice were inoculated with 3-5×10^6 mononuclear cells purified from the spleens of secondary recipient mice. Engraftment was monitored weekly by flow cytometry, and treatment was initiated when the proportion of human CD45+ cells in the peripheral blood reached 1%. The proportion of human CD45+ cells in the peripheral blood was monitored weekly throughout the course of treatment. […]
as §6

[4] = tested on: ALL-17 xenograft (ALL B-precursor); assay: PPTP in vivo leukemia xenograft ALL-17; parameters: key to EFS activity notation (high, intermediate, indeterminate): high (!); intermediate (#); indeterminate (^); settings: ALL-17 (ALL B-precursor) xenograft; 0.5 mg per mouse ip twice weekly for four weeks
Method: as §5, §1
In vivo acute lymphoblastic leukemia testing: For each xenograft line, 8 mice were inoculated with 3-5×10^6 mononuclear cells purified from the spleens of secondary recipient mice. Engraftment was monitored weekly by flow cytometry, and treatment was initiated when the proportion of human CD45+ cells in the peripheral blood reached 1%. The proportion of human CD45+ cells in the peripheral blood was monitored weekly throughout the course of treatment.
Drug: LCF/HCA was dissolved in 20mM sodium acetate pH 5 buffer containing 150 mM sodium chloride, and administered intraperitoneally twice weekly for 4 consecutive weeks at a dose of 0.5 mg per animal. The antibody was provided to each testing site in coded vials for blinded testing according the PPTP's standard operating procedures.
as §3, §4

[5] = 0.5 mg per mouse ip twice weekly for four weeks

B1: LCF/HCA: fully human anti-IGF1R antibody comprising the mature 19D12/15H12 light chain F (LCF) and mature heavy chain A (HCA) (antibody, V domains shown)
VH: EVQLVQSGGGLVHPGGSLRLSCAASGFTFSSFAMHWVRQAPGKGLEWISVIDTRGATYYADSVKGRFTISRDNAKNSLYLQMNSLRAEDMAVYYCARLGNFYYGMDVWGQGTTVTVSS
VL: EIVLTQVPDFQSVTPKEKVTITCRASQSIGSSLHWYQQKPDQSPKLLIKYASQSLSGVPSRFSGSGSGTDFTLTINSLEAEDAAAYYCHQSSRLPHTFGGGTKVEIKRT
[1]
  EFS T/C: 0.9
  Median Final RTV: >4
[1]; day 21
  Tumor Volume T/C: 0.79
EW8 xenograft (Ewings); [5]
  EFS T/C: 1.5
  Median Final RTV: >4
EW8 xenograft (Ewings); day 21, 0.5 mg per mouse ip twice weekly for four weeks
  Tumor Volume T/C: 0.86
[2]
  in vivo growth of renal cell carcinoma tumor: in vivo growth inhibition
[3]
  EFS T/C: 1
  Median Final RTV: >25
[4]
  EFS T/C: 3.1
  EFS activity notation (high, intermediate, indeterminate): #
  Median Final RTV: >25#
  Overall Group Response: PD2 (1 < MS ≦ 3)
